Measurements: patent US8343911B2, “Methods of inhibiting and treating bacterial biofilms by metal chelators” (University of Iowa Research Foundation, priority 2002, dated 2013)

Tests used:
Assay type in all cases: cell-based
P. aeruginosa [1] = experiment: Dividing times of attached bacteria in flow cells (time-lapse microscopy)
Experimental: (§1) For studies of biofilm formation, wild-type P. aeruginosa PAO1 and the surface motility mutant were grown in flow cells similar to those described previously; the size of the flow channel was 5×35×1 mm. An overnight culture diluted to 10^7 cells per ml in fresh biofilm medium was used as the inoculum and flow was arrested for 45 min. Flow of biofilm medium with and without 20 μg/ml of Fe-unsaturated or Fe-saturated lactoferrin or conalbumin (Sigma Chemical Co.) was then initiated at a rate of 170 μl/min. Images were obtained using a Biorad (Hercules, Calif.) scanning confocal microscope.
(§2) Bacterial movement was assessed by using time-lapse images acquired at 1 min intervals. Motion of bacterial cells was traced visually by following individual cells. VOXblast software (VayTek, Inc, Fairfield, Iowa) was used to obtain the X-Y coordinates of bacterial cells.
(§3) Bacterial behaviors were classified as follows. Squatters remained within a 15 μm circle drawn around the point of parental cell division until the time of its cell division. Ramblers remained attached to the growth surface, but moved outside the circle. Flyers detached and were carried away by media flow. Dividing times of attached bacteria were measured by counting the number of frames between cell divisions; 60 bacterial divisions were observed and the dividing times were averaged.

[2] = test system: P. aeruginosa strain PAO1; experiment: Growth of free swimming P. aeruginosa in biofilm medium containing lactoferrin (plate counting)
Experimental: (§4) P. aeruginosa strain PAO1 containing the GFP plasmid pMRP9-1 was used for most studies. Where indicated, an isogenic surface motility mutant (a PA01 deletion mutant from J. Kato (Department of Fermentation Technology, Hiroshima University, Hiroshima, Japan.) containing pMRP9-1 was used. Biofilm medium consisted of 1% Trypticase Soy Broth (Difco, Detroit, Mich.). In the growth experiments, approximately 10^3 bacteria from an overnight culture were added to 5 ml of biofilm medium containing the indicated concentrations of lactoferrin (Sigma Chemical Co., St Louis, Mo.). Cultures were incubated in acid-washed tubes at 37° C. with shaking. Colony-forming units were determined by plate counting. […] P. aeruginosa with pMRP9-1 was also grown in lactoferrin-containing effluent medium from flow cells. After one day of bacterial growth, effluent was collected on ice, filter sterilized, and growth was assessed as above.

[3] = test system: P. aeruginosa surface motility mutant (PA01 deletion mutant); experiment: Biofilm formation of surface motility mutant in flow cells; settings: in the presence of lactoferrin, FIG. 4e,f
Experimental: as §4

P. aeruginosa [4] = experiment: Bacterial movement and behaviors (squatters, ramblers, flyers) in flow cells; settings: in the presence of lactoferrin; 40 parental cells, three generations; FIG. 3c,d
Experimental: as §2, §3

[5] = test system: wild-type P. aeruginosa PAO1; experiment: Biofilm formation in continuous culture flow cells (confocal microscopy); settings: for effect on biofilm development / formation / effect on biofilm formation, iron-saturated protein: 20 μg/ml, flow cells; for effect on biofilm development / formation: Fe-unsaturated protein, up to day 7; for effect on biofilm formation, iron-saturated protein: Fe-saturated protein
Experimental: as §1

P. aeruginosa biofilms = experiment: Antimicrobial susceptibility of biofilms grown in rotating disk reactor (viable cell counts); settings: Fe-unsaturated conalbumin during 48 h biofilm growth
Experimental: P. aeruginosa biofilms for susceptibility tests were grown in a rotating disk reactor. Fe-unsaturated conalbumin (Sigma Chemical Co.) was added to standard biofilm medium at indicated concentrations for the duration of biofilm growth. Discs and attached bacteria were then washed 3 times in distilled water, and treated for 4 h in 1 ml of H2O2 (Fisher Scientific) or tobramycin (Eli Lilly, Indianapolis, Ind.) at indicated concentrations. The treated discs were washed 3 times, and bacteria were removed and dispersed in 2 ml sterile PBS by homogenization (Brinkman Homogenizer, model 10/35). Viable cell numbers were enumerated by plate counting.

Molecule	increase of dividing time of attached cells (P. aeruginosa [1]; 20 μg/ml lactoferrin vs. without) [%]	effect on growth of attached cells (P. aeruginosa [1]; concentration of lactoferrin that prevents biofilm formation)	dividing time of attached cells (P. aeruginosa [1]; with 20 μg/ml lactoferrin, average of 60 divisions) [min]	effect on growth rate of free swimming P. aeruginosa PAO1 ([2]; 20 μg/ml lactoferrin (sub-inhibitory), FIG. 1)	concentration of lactoferrin that inhibited bacterial growth ([2]; biofilm medium, 37° C. with shaking, varied for different lots) [µg/mL]	number of doublings in lactoferrin-containing effluent (conditioned) medium from flow cells ([2]; in 22 h, spent lactoferrin-treated medium) [times]	biofilm formation by surface motility mutant [3]	proportion of bacteria as squatters, ramblers, flyers (P. aeruginosa [4])	effect on biofilm development / formation [5]	effect on biofilm development / formation ([5]; listed as Lactoferrin)	effect on structure of mature biofilms ([5]; 5 day-old biofilms exposed to lactoferrin-containing medium for 48 h)	effect on biofilm formation, iron-saturated protein [5]	effect of growth in conalbumin on biofilm resistance to H2O2 (P. aeruginosa biofilms; then H2O2 4 h)	effect of growth in conalbumin on biofilm resistance to tobramycin (P. aeruginosa biofilms; then tobramycin 4 h)
lactoferrin (protein, UniProt P02788 20-710, looked up, known iron chelating protein (Sigma Chemical Co.), proteinaceous metal chelator) Lactotransferrin: GRRRSVQWCAVSQPEATKCFQWQRNMRKVRGPPVSCIKRDSPIQCIQAIAENRADAVTLDGGFIYEAGLAPYKLRPVAAEVYGTERQPRTHYYAVAVVKKGGSFQLNELQGLKSCHTGLRRTAGWNVPIGTLRPFLNWTGPPEPIEAAVARFFSASCVPGADKGQFPNLCRLCAGTGENKCAFSSQEPYFSYSGAFKCLRDGAGDVAFIRESTVFEDLSDEAERDEYELLCPDNTRKPVDKFKDCHLARVPSHAVVARSVNGKEDAIWNLLRQAQEKFGKDKSPKFQLFGSPSGQKDLLFKDSAIGFSRVPPRIDSGLYLGSGYFTAIQNLRKSEEEVAARRARVVWCAVGEQELRKCNQWSGLSEGSVTCSSASTTEDCIALVLKGEADAMSLDGGYVYTAGKCGLVPVLAENYKSQQSSDPDPNCVDRPVEGYLAVAVVRRSDTSLTWNSVKGKKSCHTAVDRTAGWNIPMGLLFNQTGSCKFDEYFSQSCAPGSDPRSNLCALCIGDEQGENKCVPNSNERYYGYTGAFRCLAENAGDVAFVKDVTVLQNTDGNNNEAWAKDLKLADFALLCLDGKRKPVTEARSCHLAMAPNHAVVSRMDKVERLKQVLLHQQAKFGRNGSDCPDKFCLFQSETKNLLFNDNTECLARLHGKTTYEKYLGPQYVAGITNLKKCSTSPLLEACEFLRK	27	only slightly reduced the growth of attached cells	127	did not affect the growth rate	≥ 30	6	formed microcolonies and irregularly shaped biofilms in both the absence and presence of lactoferrin	a significantly larger proportion of cells exhibited rambling behavior and fewer were squatters	differentiated biofilm formation was completely blocked	disrupted this pattern of development	failed to alter their structure			
lactoferrin (protein, UniProt P02788 20-710, looked up, iron-saturated, lactoferrin in the iron-saturated state) Lactotransferrin: GRRRSVQWCAVSQPEATKCFQWQRNMRKVRGPPVSCIKRDSPIQCIQAIAENRADAVTLDGGFIYEAGLAPYKLRPVAAEVYGTERQPRTHYYAVAVVKKGGSFQLNELQGLKSCHTGLRRTAGWNVPIGTLRPFLNWTGPPEPIEAAVARFFSASCVPGADKGQFPNLCRLCAGTGENKCAFSSQEPYFSYSGAFKCLRDGAGDVAFIRESTVFEDLSDEAERDEYELLCPDNTRKPVDKFKDCHLARVPSHAVVARSVNGKEDAIWNLLRQAQEKFGKDKSPKFQLFGSPSGQKDLLFKDSAIGFSRVPPRIDSGLYLGSGYFTAIQNLRKSEEEVAARRARVVWCAVGEQELRKCNQWSGLSEGSVTCSSASTTEDCIALVLKGEADAMSLDGGYVYTAGKCGLVPVLAENYKSQQSSDPDPNCVDRPVEGYLAVAVVRRSDTSLTWNSVKGKKSCHTAVDRTAGWNIPMGLLFNQTGSCKFDEYFSQSCAPGSDPRSNLCALCIGDEQGENKCVPNSNERYYGYTGAFRCLAENAGDVAFVKDVTVLQNTDGNNNEAWAKDLKLADFALLCLDGKRKPVTEARSCHLAMAPNHAVVSRMDKVERLKQVLLHQQAKFGRNGSDCPDKFCLFQSETKNLLFNDNTECLARLHGKTTYEKYLGPQYVAGITNLKKCSTSPLLEACEFLRK												did not prevent P. aeruginosa biofilm formation		
conalbumin (protein, UniProt P02789 20-705, looked up, a lactoferrin-like chicken egg host defense protein; iron chelating protein, tested Fe-unsaturated and Fe-saturated) Ovotransferrin: APPKSVIRWCTISSPEEKKCNNLRDLTQQERISLTCVQKATYLDCIKAIANNEADAISLDGGQAFEAGLAPYKLKPIAAEVYEHTEGSTTSYYAVAVVKKGTEFTVNDLQGKTSCHTGLGRSAGWNIPIGTLLHRGAIEWEGIESGSVEQAVAKFFSASCVPGATIEQKLCRQCKGDPKTKCARNAPYSGYSGAFHCLKDGKGDVAFVKHTTVNENAPDQKDEYELLCLDGSRQPVDNYKTCNWARVAAHAVVARDDNKVEDIWSFLSKAQSDFGVDTKSDFHLFGPPGKKDPVLKDLLFKDSAIMLKRVPSLMDSQLYLGFEYYSAIQSMRKDQLTPSPRENRIQWCAVGKDEKSKCDRWSVVSNGDVECTVVDETKDCIIKIMKGEADAVALDGGLVYTAGVCGLVPVMAERYDDESQCSKTDERPASYFAVAVARKDSNVNWNNLKGKKSCHTAVGRTAGWVIPMGLIHNRTGTCNFDEYFSEGCAPGSPPNSRLCQLCQGSGGIPPEKCVASSHEKYFGYTGALRCLVEKGDVAFIQHSTVEENTGGKNKADWAKNLQMDDFELLCTDGRRANVMDYRECNLAEVPTHAVVVRPEKANKIRDLLERQEKRFGVNGSEKSKFMMFESQNKDLLFKDLTKCLFKVREGTTYKEFLGDKFYTVISSLKTCNPSDILQMCSFLEGK									prevented biofilm formation in the iron-unsaturated state			not when iron-saturated	decreased resistance to both agents in a dose-dependent manner	decreased resistance to both agents in a dose-dependent manner
